From publication PMC6582153

Tests used:
Test in all cases: MST; 2-hep HMM with C-terminal eGFP (fluorescence followed) titrated with increasing concentrations of unlabeled proximal S2; 23 °C; 10 mM imidazole pH 7.5, 100 mM KCl, 1 mM EDTA, 2 mM MgCl2, 1 mM DTT, 500 mM ADP, 0.05% Tween; MST power 60; isotherms fitted with the Hill equation
[1] = target: D382Y recombinant human β-cardiac myosin 2-hep HMM (UniProt P08590)
[2] = target: R719W recombinant human β-cardiac myosin 2-hep HMM (UniProt P08590)
[3] = target: WT recombinant human β-cardiac myosin 2-hep HMM (UniProt P08590)

Work on “proximal S2 (amino acids 839–968) of human β-cardiac myosin (from UniProt P12883 839-968) (domain or fragment)” yielded a Kd [1] of 45 µM, a Kd [2] of 58 µM and a Kd [3] of 37 µM.
